Results: publication PMC11162806 (Nucleic Acids Research, 2024)

T1: TwinStrep-tagged UPF1 CH domain (residues 110-282) (human, UniProt Q92900 110-282)
T1 sequence (looked up): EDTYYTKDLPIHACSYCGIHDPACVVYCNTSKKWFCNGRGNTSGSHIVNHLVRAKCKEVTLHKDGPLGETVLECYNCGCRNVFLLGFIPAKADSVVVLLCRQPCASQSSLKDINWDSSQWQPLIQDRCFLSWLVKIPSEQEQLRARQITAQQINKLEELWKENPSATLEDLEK


Target: T1, TwinStrep-tagged UPF1 CH domain …
Assay: ITC

Row | Binder | Kd [µM]
1 | MBP-tagged UPF2 residues 1095-1250 (UPF2 CH-binding domain) (domain or fragment, human, UniProt Q9HAU5 1095-1250, looked up) VMIKGGGLKHVPCVEDEDFIQALDKMMLENLQQRSGESVKVHQLDVAIPLHLKSQLRKGPPLGGGEGEAESADTMPFVMLTRKGNKQQFKILNVPMSSQLAANHWNQQQAEQEERMRMKKLTLDINERQEQEDYQEMLQSLAQRPAPANTNRERRP | 1.46 ± 0.25
2 | EKQESKNPKQELRGRGRGILILPAHTTLSVNSAGSPESAPL (domain or fragment, human, UniProt Q86US8 390-430, looked up) [MBP-tagged SMG6 residues 390-430 (SMG6 CH-binding domain)] | 4.28 ± 0.25
